Publication PMC12567051, “Performing Dual Glucose Clamp Experiments in Sedated Farm Swine: A Practical Method” (Methods and Protocols, 2025)

Assay: Insulin pharmacokinetics during hyperinsulinemic-euglycemic clamp
Type: in vivo
Settings: 24 clamps in 2 swine
Source text: One CSII was initiated with commercial insulin lispro (U-100, Eli Lilly and Company, Indianapolis, IN, USA) at 0.4 units/hour, and one with preservative-free saline or diluent via 2 commercial insulin pumps. This strategy was used to mimic real-world conditions and avoid potential occlusion of the catheters, while comparing occlusion rates between insulin and saline infusions. Postoperatively, the swine were monitored twice daily for signs of pain/discomfort, hypoglycemia, and infection. Glucose concentrations (trends) were also monitored using two real-time continuous glucose sensors (CGM G4 Dexcom Inc, San Diego, CA, USA) placed laterally on the lower abdomen.
Once the fasting animal was comfortably positioned in the sling apparatus, endogenous insulin secretion was suppressed using an octreotide infusion. An initial octreotide bolus dose (7.2 µg/kg) was administered 60 min prior to starting the clamp, followed by a maintenance dose of (3.6 µg/kg/h). […]
After beginning the clamp study on the first swine, a second team ensured that duplicate laboratory and anesthesia equipment were set up and calibrated in the other half of the procedure room. […] Blood glucose measurements and insulin samples were obtained at 5 and 10 min intervals for 240 min, while other data, such as vital signs and gas concentrations, were recorded continuously.

Question: Which “time for insulin concentrations to return to near baseline” value (after bolus insulin 0.15 IU/kg via CSII catheter, sedated farm swine) does the source give for insulin lispro here?
Answer: ≤ 90 min

Question: And the “insulin Cmax” value (sedated female farm swine, bolus insulin 0.15 IU/kg via CSII catheter (subcutaneous, abdomen), endogenous insulin suppressed with octreotide, glucose clamped at 85 mg/dL, mean)?
Answer: 0.1085 nM
